Results from publication PMC11327020.

Molecular target: CXCR4 on THP-1 cells (human (endogenous in THP-1)) (UniProt P61073)
Sequence of UniProt P61073 (P61073 whole entry): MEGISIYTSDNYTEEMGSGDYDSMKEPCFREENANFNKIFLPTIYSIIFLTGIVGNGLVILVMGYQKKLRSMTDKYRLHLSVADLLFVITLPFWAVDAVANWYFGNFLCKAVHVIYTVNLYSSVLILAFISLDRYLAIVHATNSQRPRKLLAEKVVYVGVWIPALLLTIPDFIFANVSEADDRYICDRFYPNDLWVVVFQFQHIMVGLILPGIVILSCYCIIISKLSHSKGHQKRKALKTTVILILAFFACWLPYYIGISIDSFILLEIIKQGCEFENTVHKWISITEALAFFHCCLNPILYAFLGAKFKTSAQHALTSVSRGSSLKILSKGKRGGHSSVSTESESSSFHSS

CXCR4 internalization (loss of surface CXCR4 by flow cytometry) in THP-1 cells, 100 ng/mL SDF-1 for 15 minutes; uncut SDF-1, and SDF-1 pre-incubated with COAM 100x before protease at similar levels (% of receptor internalization): 25
Substance: Recombinant human stromal cell-derived factor-1 (SDF-1/CXCL12), intact (from UniProt P48061 22-93) (ligand)
